The values below come from publication PMC3943411, “Modular assembly of designer PUF proteins for specific post-transcriptional regulation of endogenous RNA”.

Common to all, as to conditions: protein: recombinant; tags: His-tag (pET28a); label: 5' 6-carboxyfluorescein
Series [1] addresses T1, PUF (S2) (human, UniProt Q14671 828-1176, S863N;N1122C). Kind of series: fluorescence polarization/anisotropy; cognate; 1 nM RNA; 20 mM Tris-HCl pH 7.5, 0.5 mM EDTA, 50 mM KCl, 0.1 mg/ml BSA; temperature not stated; protein corrected for active fraction (about 30%); KD mean ± SD, n = 3. Background: In fluorescence polarisation assays a small probe gives low polarisation when free and higher when bound to something large.

Series [2] deals with T2, PUF (S6) (human, UniProt Q14671 828-1176, S863N;C935N;N971C;H972Y;C1007N;N1043C;N1122C).
T2 sequence: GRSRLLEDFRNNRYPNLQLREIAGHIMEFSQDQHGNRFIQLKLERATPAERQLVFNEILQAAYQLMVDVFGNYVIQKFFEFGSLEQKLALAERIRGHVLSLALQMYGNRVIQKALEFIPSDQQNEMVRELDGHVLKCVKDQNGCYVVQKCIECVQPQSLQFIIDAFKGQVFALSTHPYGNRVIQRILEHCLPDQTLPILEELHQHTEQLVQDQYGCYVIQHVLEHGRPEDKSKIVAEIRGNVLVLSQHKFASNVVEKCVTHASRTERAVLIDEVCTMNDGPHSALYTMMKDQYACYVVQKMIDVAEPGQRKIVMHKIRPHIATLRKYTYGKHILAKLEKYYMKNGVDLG
Described as above.

For another series, the target named is T3, PUF (S8) (human, UniProt Q14671 828-1176, S863N;N899S;Q903E;C935N;N971C;H972Y;C1007N;N1043C;S1079N;E1083Q;N1122C).
T3 sequence: T2 sequence with N72S, Q76E, S252N, E256Q
The series is described as above.

The target of series [3] is T1, PUF (S2). Kind of series: fluorescence polarization/anisotropy; noncognate; 1 nM RNA; 20 mM Tris-HCl pH 7.5, 0.5 mM EDTA, 50 mM KCl, 0.1 mg/ml BSA; temperature not stated; protein corrected for active fraction (about 30%); KD mean ± SD, n = 3.
Series [4] addresses T4, PUF (S4) (human, UniProt Q14671 828-1176, C935N;N971C;H972Y;C1007N;N1043C).
T4 sequence: T2 sequence with N36S, C295N
Described as above.

The target of series [5] is T2, PUF (S6). The series is described as above.
The target in series [6] is T4, PUF (S4). The experiment in a line: fluorescence polarization/anisotropy; cognate; 1 nM RNA; 20 mM Tris-HCl pH 7.5, 0.5 mM EDTA, 50 mM KCl, 0.1 mg/ml BSA; temperature not stated; protein corrected for active fraction (about 30%); KD mean ± SD, n = 3.

A word on the Kd: it is a measure of binding affinity in units of concentration.

Changes are numbered by the printed parent chain.

As for CCAGAAUAGUAUAUUAUUCG (ssRNA) [S2 RNA (AGUAUAUU)], the Kd with PUF (S2) [1] worked out at 0.76 ± 0.11 nM.

CCAGAAUAGAUAUUUUUCG (ssRNA) [S6 RNA (AGAUAUUU)]: the Kd with PUF (S6) [2] worked out at 6.05 ± 0.25 nM.

For the molecule CCAGAAUAUAUAUGUUUCG (ssRNA) [S8 RNA (AUAUAUGU)], the Kd with PUF (S8) is 2.79 ± 0.69 nM.

In the case of CCAGAAUUGUAUAUAUUCG (ssRNA) [WT RNA (UGUAUAUA)], the Kd with PUF (S2) [3] was found to be 6.29 ± 2.8 nM; in the series with PUF (S4) [4], 5.77 ± 1.33 nM; in the series with PUF (S6) [5] it was 89.6 ± 16.5 nM.

With CCAGAAUUGAUAUUAUUCG (ssRNA) [S4 RNA (UGAUAUUA)], in the series with PUF (S4) [6], the Kd came to 0.59 ± 0.1 nM.
